Experimental data from the nanobody polyreactivity screen of Harvey et al. (2022).

Assay: yeast display, Sf9 membrane polyspecificity reagent, FACS + sequencing; frameworks hold sequencing errors
Procedure, shortened: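 Sorting gates, low and high (top ~1%), were placed on anti-HA fluorescence to track expression and on streptavidin fluorescence to track reagent binding. A clone's polyreactivity label is taken from the gate it came out of. The reagent was 10% biotinylated, detergent-solubilized Sf9 membrane, applied for 1 hour at 4 °C to galactose-induced yeast display cells.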

Which “polyreactivity (PSR sort gate)” value does the source give for “QVQLVESGGGLVQAGGSLRLSCAASGSIYKYYAMGWYRQAPGKERELVAALTIGGITNYADSVKGGFTISRDNATNTVYLQMTSLKPEDPAVYYCATGVYYSAIVYGGYDYWGQGTQVTVSS” here?
Its value is “low polyreactivity”.

For “QVQLVESGGGLVQAGGSLRLSCAASGSIYLNYAMGWYRQAPGKERELVAGISNGGSTNYADSVKGRFTISRDNAKNTVYLQMKSLIPEDTAVYYCARPAYKSRGKRFDYWGQGTQVTVSS”, which “polyreactivity (PSR sort gate)” value is on record?
The value was “low polyreactivity”.

For “QVQLVESGGGLVQAGGSLRLSCAASGSIYRDALGWYRQAPGKERELVAAINFNGGRTYYADSVKGRFTISRDNAKNTVYLQMNSLKPEDTAVYYCAAVRSSNQGGFDYWGQGTQVTVSS”, which “polyreactivity (PSR sort gate)” value is on record?
Its value is “high polyreactivity”.

With “QVQLVESGGGLVQAGGSLRLSCAASGSIYRDYTMGWYRQAPGKERELVAISWSSGGTNYADSVKGRFTISRDNAKNTVYLQMNSLKPEDTAVYYCAADRSTGLGDDDYWGQGTQVTVSS” as the sequence, how does the “polyreactivity (PSR sort gate)” value read?
Its value is “low polyreactivity”.

For “QVQLVESGGGLVQAGGSLRLSCAASGSIYRRYAMGWYRQAPGKERELVAAINQSGGRTYYADSVKGRFTISRDNAKNTVYLQMNSLKPEDTAVYYCAARYYGRVGGDSIGYNYWGQGTQVTVSS”, which “polyreactivity (PSR sort gate)” value is on record?
The value was “high polyreactivity”.

Which “polyreactivity (PSR sort gate)” value does the source give for “QVQLVESGGGLVQAGGSLRLSCAASGSIYRYAMGWYRQAPGKEREFVAAITWNGGSTYYADSVKGRFTISRDNAKNTVYLQMNSLKPEDTAVYSCAAYEKRLGYDYWGQGTQVTVSS” here?
The value was “high polyreactivity”.

For “QVQLVESGGGLVQAGGSLRLSCAASGSIYRYYPMGWYRQAPGKEREFVAAITYSDSDTYYADSVKGRFTISRDNAKNTVYLQMNRLKPEDTAVYYCAARFRRTRVTYYYWGQGTQVTVSS”, which “polyreactivity (PSR sort gate)” value is on record?
The value was “high polyreactivity”.

For “QVQLVESGGGLVQAGGSLRLSCAASGSIYSINAMGWYRQAPGKERELVAAISWSGGSTYYADSVKGRFTISRDNAKNTVYLQMNSLKPEDTAVYYCNAEEDEYGELDYWGQGTQVTVSS”, which “polyreactivity (PSR sort gate)” value is on record?
The value was “low polyreactivity”.

For “QVQLVESGGGLVQAGGSLRLSCAASGSIYSSYAMGWYRQAPGKERELVAAISSSGDSTYADSVKGRFTISRDNAKNTVYLQMNSLKPEDTAVYYCAVGGAGSDDYWGQGTQVTVSS”, which “polyreactivity (PSR sort gate)” value is on record?
The value was “low polyreactivity”.

With “QVQLVESGGGLVQAGGSLRLSCAASGSIYWRYAMGWYRQAPGKEMELVASITSGGGSTYYADSVKGRFTISRDNAKNTVYLQMNSLKPEDTAVYYCAAERYYSEAIFRSYDYWGQGTQVTLSS” as the sequence, how does the “polyreactivity (PSR sort gate)” value read?
Its value is “low polyreactivity”.

Which “polyreactivity (PSR sort gate)” value does the source give for “QVQLVESGGGLVQAGGSLRLSCAASGSIYYPYAMGRYRQAPGKERELVAAITTGGSTYYADSVKGRFTISRDNAKNTVYLQMNSLKPEDTAVYYGNKGSFPYTSKAYSYSLGGDDYWGQGTQVTVSS” here?
Its value is “low polyreactivity”.

For “QVQLVESGGGLVQAGGSLRLSCAASGSIYYQYAMGWYRQAPGKERELVAAITYGGGSTYYADSVKGRFTISRDNAKNTVYLQMISLKPEDTAVYYCAKDLYHTVGRYDYWGQGTQVTVSS”, which “polyreactivity (PSR sort gate)” value is on record?
Its value is “low polyreactivity”.

For “QVQLVESGGGLVQAGGSLRLSCAASGSLFGSYAMGWYRQAPGKEREIVASISNSGGSTYYADSVKGRFTISRDNAKNTVYLQMNSLKPEDTAVYYCAAAVYSYTYRYYYWGQGTQVTVSS”, which “polyreactivity (PSR sort gate)” value is on record?
The value was “high polyreactivity”.

With “QVQLVESGGGLVQAGGSLRLSCAASGSLFNRNVMGWYRQAPGKERELVAAMTRGGRTSYADSVKGRFTISRDNAKNTVYLQMNSLKPEDTAGYYCAARRGYWVDYWGQGTQVTVSS” as the sequence, how does the “polyreactivity (PSR sort gate)” value read?
The value was “high polyreactivity”.

For “QVQLVESGGGLVQAGGSLRLSCAASGSLFSAYAMGWYRQAPGKEREFVAAITRRGGNTYYADSVKGRYTISRDNAKNTVYLQMNSLKPDDTAVYYCAADAGGGPFDYCGQGTQVTVSS”, which “polyreactivity (PSR sort gate)” value is on record?
Its value is “low polyreactivity”.

With “QVQLVESGGGLVQAGGSLRLSCAASGSMFFWYVMGWYRQAPGKERELVASISSGGSTYYADSVKGRFTISRDNAKNTVYLQMNSLKPEDTAVYYCNAKSWSPAKSFSFFRFDYWGQGTQETVSS” as the sequence, how does the “polyreactivity (PSR sort gate)” value read?
The value was “low polyreactivity”.

With “QVQLVESGGGLVQAGGSLRLSCAASGSMFTGYDMGWYRQAPGKERELVAAITASGSGTYYADSVKGRFTISRDNAKNTVYLQMNSLKPEDTAVYYGNAPYLFYRGDSDHYYYNEGGYWGQGTQVTVSS” as the sequence, how does the “polyreactivity (PSR sort gate)” value read?
Its value is “high polyreactivity”.

Which “polyreactivity (PSR sort gate)” value does the source give for “QVQLVESGGGLVQAGGSLRLSCAASGSMSYGYGMGWYRQAPGKEREVVATISGRAGSTYYADSVKGRFTISRDNAKNTVYLQINSLQPEDTAVYYCAAKWWRLTWTAGYGGRGYGYWGQGTQVTVSS” here?
Its value is “low polyreactivity”.

For “QVQLVESGGGLVQAGGSLRLSCAASGSNAMGCYRPAPGKDSELVAVITSRGGSTYYADSVKGRFTISRDNAKNTVYLQMNSLKPEDTAVYYCAKAWYVRGTWSVHVRYGYWGQGTQVTVSS”, which “polyreactivity (PSR sort gate)” value is on record?
The value was “high polyreactivity”.

Which “polyreactivity (PSR sort gate)” value does the source give for “QVQLVESGGGLVQAGGSLRLSCAASGSNFAINAMGWYRQAPGKERELVAAIRYSTGRTYYADSVKGRFTISRDNAKNTVYLQMNSLKPEDTAVYYCAALGFTKYGSRFDYWGQGTQVTVSS” here?
The value was “high polyreactivity”.

With “QVQLVESGGGLVQAGGSLRLSCAASGSNFASYSMGWYRQSPGKERELVAAITDSGGSTYYADSVKGRLTSSRENGKNTVYLQMNSLKPEDTAVYYCAAYGPYFSYHDYVYWGQGTQVTVSS” as the sequence, how does the “polyreactivity (PSR sort gate)” value read?
Its value is “low polyreactivity”.

Which “polyreactivity (PSR sort gate)” value does the source give for “QVQLVESGGGLVQAGGSLRLSCAASGSNFDDYVMGWYRQAPGKERELVAGINSRGTSTDYADSVKGRFTISRDNAQNTVYLQMNSLKPEDTAVYYCAADDSHGYDYWGQGTQVTVSS” here?
The value was “low polyreactivity”.

For “QVQLVESGGGLVQAGGSLRLSCAASGSNFDSYAMGWYRQAPGKERVLVAAITRSSVSTYYADSVKGRFTISRDNAKYTVYLQMNSLKPEDTAVYYCAAEDEWSLLYLWFGEYDYWGQGTQVTVSS”, which “polyreactivity (PSR sort gate)” value is on record?
The value was “low polyreactivity”.

For “QVQLVESGGGLVQAGGSLRLSCAASGSNFDYYTMGWYRQAPGKERELVAAISRSGGSTRYADSVKGRFTISRDNAKNTVYLQMNSLKPEDTGVSYCAAGARQGVYRGGDYWGQGTQVTVSS”, which “polyreactivity (PSR sort gate)” value is on record?
Its value is “low polyreactivity”.

With “QVQLVESGGGLVQAGGSLRLSCAASGSNFGPNAMGWYRQAPGKERELVAAIRSNGGRTYYADSVKGRFTISRDNAKNTVYLQMNRLKPEDTAVYYCAAPHYPYDTPYGYWGHGTQVTVSS” as the sequence, how does the “polyreactivity (PSR sort gate)” value read?
Its value is “low polyreactivity”.

With “QVQLVESGGGLVQAGGSLRLSCAASGSNFGSYTMGWYRQAPGKERELDAAITSGGGNTYYADSVKGRFTISRDNAKNTVYLQMNSLKPEDTAVYYCNATVRGRNALGRVQKYYYWGQGTQVTVSS” as the sequence, how does the “polyreactivity (PSR sort gate)” value read?
The value was “high polyreactivity”.

Which “polyreactivity (PSR sort gate)” value does the source give for “QVQLVESGGGLVQAGGSLRLSCAASGSNFGYYAMGWYRQAPGKERELVAAISWRGGSTYYADSVTGRFTISRDNAKNTVYLQMNSLTPEDTAVYDCAAPVGNYGSFDYWGQGTQVTVSS” here?
The value was “low polyreactivity”.

For “QVQLVESGGGLVQAGGSLRLSCAASGSNFHGNAMGWSRQAPGKERELVAAISQSGDSTYYADSVKGRFTISRDNAKNTVYLQMNSLKPEDTAVYYCAARSGYRGYYHFYYWGQGTQVTVSS”, which “polyreactivity (PSR sort gate)” value is on record?
The value was “high polyreactivity”.

With “QVQLVESGGGLVQAGGSLRLSCAASGSNFIGYAMGWYRQEPGKERELVAAISNSGGRTYYADSVKGRFTISRDNAKNTVYLQMNSLKPEDTAVYYCNVAYRIPYRMDYWGQGTQVTVSS” as the sequence, how does the “polyreactivity (PSR sort gate)” value read?
Its value is “high polyreactivity”.

With “QVQLVESGGGLVQAGGSLRLSCAASGSNFINNAMGWYRQAPGKERELVAAISGNADRTYYADSVKGRFTISRDNAKNTLYLQMNSLKPEETAVYYCNKGYGVYYTFGSWGQGTQVTVSS” as the sequence, how does the “polyreactivity (PSR sort gate)” value read?
The value was “low polyreactivity”.
